Data on one molecule can be found in publication PMC7508794, “IRES-targeting small molecule inhibits enterovirus 71 replication via allosteric stabilization of a ternary complex”.

One data set deals with A1-RRM1,2 (UP1) (UniProt P09651 1-196). Kind of data set: ITC; no small molecule; ITC: 10 mM K2HPO4, 20 mM KCl, 0.5 mM EDTA, 4 mM BME, pH 6.5, 25 C; lysate pull-down: 5 mM HEPES pH 7.1, 40 mM KCl, 0.1 mM EDTA, 2 mM MgCl2, 2 mM DTT, 0.25 mg/ml heparin, 30 C. The note with it: protein: recombinant; tags: C-terminal His6; hairpin with 5-nt bulge and 7-nt apical loop. Background: Isothermal titration calorimetry measures the heat released or taken up as one component is titrated into another.

The target in data set [1] is T1, AUF1-RRM1,2 (UniProt Q14103-4 70-239). Described as above. The note with it: protein: recombinant; tags: N-terminal His6, cleaved with TEV; hairpin with 5-nt bulge and 7-nt apical loop.
For data set [2], the target named is T1, AUF1-RRM1,2. Briefly: ITC; DMA-001, RNA:DMA 1:5; ITC: 10 mM K2HPO4, 20 mM KCl, 0.5 mM EDTA, 4 mM BME, pH 6.5, 25 C; lysate pull-down: 5 mM HEPES pH 7.1, 40 mM KCl, 0.1 mM EDTA, 2 mM MgCl2, 2 mM DTT, 0.25 mg/ml heparin, 30 C. To be noted: protein: recombinant; tags: N-terminal His6, cleaved with TEV; hairpin with 5-nt bulge and 7-nt apical loop.
Data set [3] deals with T1, AUF1-RRM1,2. Kind of data set: ITC; DMA-135, RNA:DMA 1:5; ITC: 10 mM K2HPO4, 20 mM KCl, 0.5 mM EDTA, 4 mM BME, pH 6.5, 25 C; lysate pull-down: 5 mM HEPES pH 7.1, 40 mM KCl, 0.1 mM EDTA, 2 mM MgCl2, 2 mM DTT, 0.25 mg/ml heparin, 30 C. The note with it: protein: recombinant; tags: N-terminal His6, cleaved with TEV; hairpin with 5-nt bulge and 7-nt apical loop.
The target of data set [4] is T1, AUF1-RRM1,2. Kind of data set: ITC; DMA-155, RNA:DMA 1:5; ITC: 10 mM K2HPO4, 20 mM KCl, 0.5 mM EDTA, 4 mM BME, pH 6.5, 25 C; lysate pull-down: 5 mM HEPES pH 7.1, 40 mM KCl, 0.1 mM EDTA, 2 mM MgCl2, 2 mM DTT, 0.25 mg/ml heparin, 30 C. To be noted: protein: recombinant; tags: N-terminal His6, cleaved with TEV; hairpin with 5-nt bulge and 7-nt apical loop.
In data set [5] the target is T1, AUF1-RRM1,2. Kind of data set: ITC; DMA-135, RNA:DMA 1:1.6; ITC: 10 mM K2HPO4, 20 mM KCl, 0.5 mM EDTA, 4 mM BME, pH 6.5, 25 C; lysate pull-down: 5 mM HEPES pH 7.1, 40 mM KCl, 0.1 mM EDTA, 2 mM MgCl2, 2 mM DTT, 0.25 mg/ml heparin, 30 C. To be noted: protein: recombinant; tags: N-terminal His6, cleaved with TEV; hairpin with 5-nt bulge and 7-nt apical loop.
Data set [6] concerns the target T1, AUF1-RRM1,2. Briefly: ITC; DMA-135, RNA:DMA 1:3.3; ITC: 10 mM K2HPO4, 20 mM KCl, 0.5 mM EDTA, 4 mM BME, pH 6.5, 25 C; lysate pull-down: 5 mM HEPES pH 7.1, 40 mM KCl, 0.1 mM EDTA, 2 mM MgCl2, 2 mM DTT, 0.25 mg/ml heparin, 30 C. To be noted: protein: recombinant; tags: N-terminal His6, cleaved with TEV; hairpin with 5-nt bulge and 7-nt apical loop.

T1 sequence (Q14103 other isoform, or with tags, fused parts or gaps): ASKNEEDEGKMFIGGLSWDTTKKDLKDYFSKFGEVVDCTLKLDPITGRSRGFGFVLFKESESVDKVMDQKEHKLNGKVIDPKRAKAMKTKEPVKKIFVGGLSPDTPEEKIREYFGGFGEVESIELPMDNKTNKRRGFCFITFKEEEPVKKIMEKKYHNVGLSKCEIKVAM
A1-RRM1,2 (UP1), sequence (P09651 1-196): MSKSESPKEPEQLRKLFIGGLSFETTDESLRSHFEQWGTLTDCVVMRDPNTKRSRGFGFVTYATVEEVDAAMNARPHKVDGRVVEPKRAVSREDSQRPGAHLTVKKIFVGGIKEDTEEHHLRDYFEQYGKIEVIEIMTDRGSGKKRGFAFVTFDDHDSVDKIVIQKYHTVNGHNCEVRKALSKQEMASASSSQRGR

B1: EV71 SLII (SLII2231) (structured_RNA)
RNA: GGAUCAAUAGCAGGUGUGGCACACCAGUCAUACCUUGAUCC
For B1, the binding result in the data set with A1-RRM1,2 (UP1) is on record as “binds”. Moreover, the Kd (usually the equilibrium constant for the complex coming apart) with AUF1-RRM1,2 [1] turned out to be 336 ± 44 nM; with AUF1-RRM1,2 [2] it was 306 ± 4 nM; with AUF1-RRM1,2 [3] it was 134 ± 7 nM; in the data set with AUF1-RRM1,2 [4], 390 ± 7 nM; with AUF1-RRM1,2 [5] it was 240 ± 72 nM; with AUF1-RRM1,2 [6], 140 ± 2 nM.
